Measurements reported in US20240279845.

System: disulfide cyclized peptide Mpa-Tyr-II-Pro-Mea

thrombin
thrombin activity in screen at compound concentration of around 10 µM (fluorogenic substrate): reduced the thrombin activity 52%
